Measured values reported in patent EP2239269B1, “Use of peptides derived from copolymer-1 as molecular weight markers” (YEDA RESEARCH AND DEVELOPMENT CO., LTD., priority 1998, dated 2013).

Tests used:
Type in all cases: physicochemical
[1] = Circular dichroism, molar ellipticity (Jobin-Yvon CD spectrophotometer); parameters: unit not given here
Description: Circular dichroism - Structural similarity between the molecular weight markers and glatiramer acetate is a pre-requisite for an appropriate calibration of a molecular sizing column. Differences in polypeptide structure may result in different hydrodynamic size and consequently in altered retention time in the chromatographic system. The ellipticity, determined by circular dichroism, serves as a measure of the secondary structure of a polypeptide. When the ellipticity of the molecular weight markers and glatiramer acetate is similar, the structures of the two will be similar.
The molar ellipticity of the polypeptides was determined on a Jobin-Yvon CD spectrophotometer. […] Note that while the exact molecular weight for the TV-markers was plotted, the averace-by-number molecular weight for the glatiramer acetate was used in the plot.

[2] = Stability of markers in solution at room temperature, followed by peak retention time on chromatography; conditions: for Peak Retention Time, Average: average of the four analyses over 24 hours, room temperature; for Peak Retention Time: solution at room temperature, 0.1 mg/ml
Procedure: Stability of markers in solution - TV-markers were chromatographed four times over a period of 24 hours. All markers were kept as solutions at room temperature and were analyzed at 8 hour intervals.

[3] = Stability of marker solutions stored frozen at -10 to -20°C, followed by retention time at column calibration; parameters: unit not given here; conditions: stored at -10° to -20°C
Procedure: In addition, solutions of the markers were stored for up to 3 ½ months under various storage conditions (2-8 °C, -10 to -20°C, with/without azide).

[4] = 1st of four analyses at 8 hour intervals over 24 hours
[5] = 2nd of four analyses at 8 hour intervals
[6] = 3rd of four analyses at 8 hour intervals
[7] = 4th of four analyses at 8 hour intervals
[8] = date of calibration 04-step-97, interval 105 days
[9] = date of calibration 09-Jul-97, interval 48 days
[10] = date of calibration 22-May-97, interval -

Molecule	M-ellip. (210nm) [1]	Peak Retention Time, Average [2]	Peak Retention Time [2, 4] [min]	Peak Retention Time [2, 5] [min]	Peak Retention Time [2, 6] [min]	Peak Retention Time [2, 7] [min]	RT [3, 8]	RT [3, 9]	RT [3, 10]
TV-86: 86-mer sequence-defined polypeptide molecular weight marker of Ala, Glu, Tyr, Lys, molecular weight = 9220 daltons (peptide) AKKYAKKEKAYAKKAEKAAKKAEAKAYKAAEAKKKAKAEAKKYAKAAKAEKKEYAAAEAKYKAEAAKKAYKAEAAKAAAKEAAYEA	-5.4546	26.129	26.117	26.100	26.150	26.150	24.950	25.017	24.883
TV-66: 66-mer sequence-defined polypeptide molecular weight marker of Ala, Glu, Tyr, Lys, molecular weight = 7040 daltons (peptide) AKKYAKKEKAYAKAKKAEAKAAKKAKAEAKKYAKAAKAEKKEYAAAEAKYKAEAAKAAAKEAAYEA	-3.5172	27.404	27.400	27.350	27.433	27.433	26.300	26.317	26.233
TV-77: 77-mer sequence-defined polypeptide molecular weight marker of Ala, Glu, Tyr, Lys, molecular weight = 8259 daltons (peptide) AKKYAKKEKAYAKKAEKAAKKAEAKAYKAAEAKKKAKAEAKKYAKAAKAEKKEYAAAEAKYKAEAAKAAAKEAAYEA	-4.8365	26.746	26.750	26.700	26.750	26.783	25.550	25.617	25.467
TV-109: 109-mer sequence-defined polypeptide molecular weight marker, molecular weight = 11727 daltons (peptide) AKKYAKKAEKAYAKKAKAAKEKKAYAKKEAKAYKAAEAKKKAKAEAKKYAKEAAKAKKEAYKAEAKKYAKAAKAEKKEYAAAEAKKAEAAKAYKAEAAKAAAKEAAYEA	-6.818	24.842	24.783	24.850	24.883	24.850	23.583	23.650	23.500
